Reference: US20200231648A1 (LENTIGEN TECHNOLOGY, published 2020)

Assays:
CD19-Fc (R&D Biosystems) = target: T1, CD19-Fc (R&D Biosystems) (UniProt P15391 20-291); assay: flow cytometry, CAR T cells stained with CD19-Fc and CD20-biotin
T1 construct: Bought staining reagent, 1 ug/sample; also called recombinant CD19; not shown: Fc part of the bought reagent (detected with goat anti-human Fc-gamma)
T1 sequence (looked up): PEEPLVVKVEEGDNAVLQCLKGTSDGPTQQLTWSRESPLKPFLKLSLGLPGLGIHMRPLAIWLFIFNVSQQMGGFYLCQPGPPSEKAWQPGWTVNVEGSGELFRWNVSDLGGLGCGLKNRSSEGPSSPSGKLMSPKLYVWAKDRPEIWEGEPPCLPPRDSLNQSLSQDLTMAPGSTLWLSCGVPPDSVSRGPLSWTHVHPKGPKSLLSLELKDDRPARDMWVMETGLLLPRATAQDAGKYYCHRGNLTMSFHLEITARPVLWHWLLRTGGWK
Experimental: (§1) Cells were washed twice and resuspended in 200 ul Staining Buffer before quantitative analysis by flow cytometry.

[1] = target: T2, CD20-biotin (Miltenyi Biotec) (UniProt P11836 142-188, limits assumed, biotin (site not stated)); assay: as above
T2 construct: Bought staining reagent, 0.1 ug/sample, detected with streptavidin conjugate; also called recombinant CD20; CD20 biotin reagent
T2 chain (looked up): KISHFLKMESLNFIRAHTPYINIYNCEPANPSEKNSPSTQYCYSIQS
Experimental: as §1

- binding result (CD19-Fc (R&D Biosystems)): no binding (tested: 1 ug/sample)
- binding result [1]: no binding (tested: 0.1 ug/sample)
B1: CAR LTG2200 (LP-2200-CD8 TM-41BB-CD3zeta) (other)
chain: QVQLQQSGPGLVKPSQTLSLTCAISGDSVSSNSAAWNWIRQSPSRGLEWLGRTYYRSKWYNDYAVSVKSRITINPDTSKNQFSLQLNSVTPEDTAVYYCAREVTGDLEDAFDIWGQGTMVTVSSGGGGSGGGGSGGGGSDIQMTQSPSSLSASVGDRVTITCRASQTIWSYLNWYQQRPGKAPNLLIYAASSLQSGVPSRFSGRGSGTDFTLTISSLQAEDFATYYCQQSYSIPQTFGQGTKLEIKAAATTTPAPRPPTPAPTIASQPLSLRPEACRPAAGGAVHTRGLDFACDIYIWAPLAGTCGVLLLSLVITLYCKRGRKKLLYIFKQPFMRPVQTTQEEDGCSCRFPEEEEGGCELRVKFSRSADAPAYQQGQNQLYNELNLGRREEYDVLDKRRGRDPEMGGKPRRKNPQEGLYNELQKDKMAEAYSEIGMKGERRRGKGHDGLYQGLSTATKDTYDALHMQALPPR
notes: Chimeric antigen receptor with the m971 anti-CD22 scFv on primary human T cells; The entry includes the leader peptide; also called 22-BBz; CAR22 LTG2200
